Measured values published in patent US12697404B2, “PSMA-targeting conjugate and uses thereof” (priority 2021, dated 2026).
Like-named read-outs stand apart in the source and are kept apart here.

Legend:
[1] = system: subcutaneous LNCaP tumors; test: Comparative biodistribution study in xenograft-bearing mice; format: in vivo, athymic nude mice; conditions: both labeled with 212Pb, one 10 μCi dose i.v., at 1 hour, 4 hours and 24 hours post-dose injection
Experimental: A study was carried out in order to compare the biodistribution of PSMA-OM-00214, labeled with ^212Pb at a specific activity of 10 μCi per 10 ng of conjugate, in athymic nude mice bearing a human prostate cancer cell tumor with that of a conjugate, denoted hereinafter “DOTAM-PSMA-617”, also labeled with ^212Pb and differing from PSMA-OM-00214 in that it comprises only one PSMA ligand instead of two.
Three batches of male athymic nude mice, 7-8 weeks old and weighting 27.90±2.6 g for the first batch, 27.90±2.5 g for the second batch and 29.50±2.5 g for the third batch, at study initiation, were injected subcutaneously, into the right flank, with 10^6 LNCaP cells in 100 μL of RPMI-1640 medium/Matrigel™ (v/v: 1/1). The tumors were let grow until they reached 200-300 mm^3.
The mice were divided into a plurality of groups each comprising 3 to 14 mice.
In any case, each mouse received intravenously either one 10 μCi dose of ^212Pb-PSMA-OM-00214 (10 μCi per 10 ng of conjugate, 100 μL injection volume) or one 10 μCi dose of ^212Pb-DOTAM-PSMA-617 (10 μCi per 10 ng of conjugate, 100 μL injection volume). […]
The tubes were counted for two min. […] Standards consisting of 5 μL of the solutions injected to the mice were also counted and used for decay correction.
(§1) The percent injected dose per gram, denoted % ID/g, was calculated for each organ collected (mean±standard deviation).

[2] = system: subcutaneous LNCaP tumors; test: ^212Pb-PSMA-OM-00214 biodistribution study in xenograft-bearing mice; format: in vivo, R2G2 mice; conditions: labeled with 212Pb, one 10 μCi dose i.v., 4 hours post-injection
Experimental: (§2) A study was carried out in order to assess the biodistribution of PSMA-OM-00214, labeled with ^212Pb at a specific activity of 10 μCi per 10 ng of conjugate, in R2G2™ mice bearing a human prostate cancer cell tumor.
(§3) 15 male R2G2™ mice, 7-8 weeks old and weighting 33.9±3.5 g at study initiation, were injected subcutaneously, into the right flank, with 10^6 LNCaP cells in 100 μL of RPMI-1640 medium/Matrigel™ (v/v: 1/1). The tumors were let grow until they reached 200-300 mm^3 (as determined by the formula: volume=0.5×length×width^2).
(§4) Then animals were randomized based on tumor size and a group of 6 mice received intravenously (into a tail vein) one 10 μCi dose of ^212Pb-PSMA-OM-00214 (10 μCi per 10 ng of conjugate, 100 μL injection volume).
(§5) The mice were sacrificed at 4 hour post-dose injection.
(§6) Blood, bladder, reproductive organs, small intestine, colon with caecum, spleen, pancreas, kidneys, stomach, liver, lung, heart, brain, femoral bone, abdominal fat, skeletal muscle, tail (as injection site) and LNCaP tumor were collected from each sacrificed mouse, weighted and transferred to individual tubes for automatic gamma counter.
(§7) The tubes were counted for two min. The background was automatically subtracted from the counts. A standard consisting of 5 μL of the solution injected to the mice was also counted for each group of mice and used for decay correction.
as §1

[3] = as above; format: in vivo, R2G2 mice; conditions: male, R2G2, mouse, iv, 10 uCi, total radioactivity, labeled with 212Pb, 10 μCi per 10 ng of conjugate, one 10 μCi dose i.v.
Experimental: as §2, §3, §4, §5, §6, §7, §1

For NC(=O)CN1CCN(CC(=O)NCC2CCC(C(=O)NC(Cc3ccc4ccccc4c3)C(=O)NCCCCC(NC(=O)NC(CCC(=O)O)C(=O)O)C(=O)O)CC2)CCN(CC(N)=O)CCN(CC(=O)NCC2CCC(C(=O)NC(Cc3ccc4ccccc4c3)C(=O)NCCCCC(NC(=O)NC(CCC(=O)O)C(=O)O)C(=O)O)CC2)CC1 (centres unmarked) [PSMA-OM-00214], the “tumor uptake and retention compared with DOTAM-PSMA-617” value [1] was “significantly higher”, the tumor/kidney ratio [2] was “satisfactory” and the “uptake in all major non-tumor tissues” value [2] was “very low uptake”. For the same compound, the tissue uptake at 4 h ([3]; LNCaP tumor, 4 hours post-injection, average, read-out: tumor uptake) was over 20 %ID/g and the tissue uptake at 4 h ([3]; kidneys, 4 hours, read-out: kidney uptake) was about 10 %ID/g.
